Experiments:
[1] = molecular target: H5N1 HA蛋白(BIOHJSW，货号orb-EHJ075488) (H5N1 avian influenza virus)
[2] = molecular target: H5N1 HA蛋白(BIOHJSW，货号orb-EHJ075488) (H5N1 avian influenza virus); assay: indirect ELISA, coated HA 5 μg/mL, hybridoma supernatant
[3] = molecular target: H1 HA; assay: as above
[4] = molecular target: H3 HA; assay: as above

B1: H5-3F5单克隆抗体 (antibody, V domains shown)
VH: EVQLVESGGGLVQPGGSLRLSCAASGFSLSEAVSGWVRQAPGKGLEWVGVCNNRIPFYLTWCKLFRFTISKDNSKNTLYLQMNSLRAEDTAVYYCARQRSYCNFQPHPNGWGQGTLVTVSS
VL: AYQMTQSPSSVSASVGDRVTITCGQNMMWIPAWLWYQQKPGKAPKLLIYETNGEHYGVPSRFSGSGSGTDFTLTISSLQPEDFATYYCMMMNARKSLQATKFGGGTKVEIK
Kd [1]: 0.407 nM
OD450 [2]: 2.62 OD450
OD450 [3]: 0.231 OD450
OD450 [4]: 0.412 OD450

From patent CN115353562A
